Key:
[1] = target: Suc-Ala-Pro-Phe-MCA
[2] = target: Pyr-Gly-Arg-MCA
[3] = target: Suc-Leu-Leu-Val-Tyr-MCA
[4] = target: Z-Phe-Arg-MCA
[5] = target: Boc-Phe-Ser-Arg-MCA
[6] = target: Z-Arg-Arg-MCA
[7] = target: Suc-Ala-Ala-Pro-Phe-MCA
[8] = target: Boc-Val-Leu-Lys-MCA
[9] = system: 26·29 kDa protease; settings: stated under Prior Art; cited from earlier work
[10] = Assay of protease activity with fluorescent peptidyl-MCA substrates; format: biochemical; settings: for Hydrolysis of Z-Arg-Arg-MCA (in words): substrate Z-Arg-Arg-MCA
Method: Table 2 lists specific activities of 26·29 kDa protease, cathepsin B from flesh fly and cathepsin L from flesh fly to various substrates, which were measured in terms of their hydrolytic activities against the fluorescence-attached synthetic substrates. The numeral represents the mass of fluorescent synthetic substrate hydrolyzed by a unit weight of protease, or a specific activity of that enzyme. For the numerals of Table, one unit of activity is defined as a weight of enzyme necessary for hydrolyzing 1 μmol of substrate in 10 minutes. "ND" in Table represents no result because the test not being made. Sequence listing numbers for sequences in Table 2 are: SEQ ID NO:100 and SEQ ID NO:101.
Assay of enzymatic activity was performed using 0.2 ml of 5 mM sodium phosphate (pH 6.0) containing 0.05 mM peptidyl-MCA substrate, 100 mM NaCl, 1 mM EDTA, 5 mM 2-mercaptoethanol, and 10 μl of the test fraction. The solution was incubated at 27° C. for 10 minutes, to which was added 0.2 ml of 20% aqueous solution of acetic acid to stop the reaction. Fluorescence at 380 nm and 460 nm was observed. The amount necessary for hydrolyzing 1 μmol substrate in 10 minutes under the above condition was defined as one unit of protease activity.
For purification of 26·29 kDa protease, carbobenzoxy-Arg-Arg-MCA was used as the substrate. Further, for determination of substrate specificity, various peptidyl-MCAs were used.

[11] = cited from earlier work
[12] = Assay of protease activity with fluorescent peptidyl-MCA substrates; format: biochemical; settings: for Recovery of protease activity after treatment to restore activity: condition effective for recombinant human cathepsin L precursor, natural protease denatured first
[13] = substrate Suc-Ala-Ala-Pro-Phe-MCA
[14] = substrate Suc-Leu-Leu-Val-Tyr-MCA
[15] = substrate z-Arg-Arg-MCA, 1 unit hydrolyzes 1 μmol substrate in 10 minutes

26·29 kDa protease of flesh fly (Sarcophaga peregrina), isolated and purified from body fluid cells (enzyme)
Activity (units/mg enzyme) (units/mg enzyme) [1]: 0.01
Activity (units/mg enzyme) (units/mg enzyme) [2]: 0.03
Activity (units/mg enzyme) (units/mg enzyme) [3]: 0.03
Activity (units/mg enzyme) (units/mg enzyme) [4]: 2.25
Activity (units/mg enzyme) (units/mg enzyme) [5]: 0.15
Activity (units/mg enzyme) (units/mg enzyme) [6]: 4.29
Activity (units/mg enzyme) (units/mg enzyme) [7]: 0.01
Activity (units/mg enzyme) (units/mg enzyme) [8]: 0.61

CC(C)C[C@H](NC(=O)[C@H]1O[C@@H]1C(=O)O)C(=O)NCCCCN=C(N)N [E64]
Inhibition of protease activity [9]: inhibited

cathepsin B from flesh fly (enzyme)
Activity (units/mg enzyme) (units/mg enzyme) [1]: 0.83
Activity (units/mg enzyme) (units/mg enzyme) [2]: 0.29
Activity (units/mg enzyme) (units/mg enzyme) [3]: 18.7
Activity (units/mg enzyme) (units/mg enzyme) [4]: 20.6
Activity (units/mg enzyme) (units/mg enzyme) [6]: 0.86
Activity (units/mg enzyme) (units/mg enzyme) [7]: 0.5

cathepsin B: cathepsin B from flesh fly, comparison cysteine protease
Activity (units/mg enzyme) ([10]; substrate Pyr-Gly-Arg-MCA): 0.29 units/mg enzyme
Activity (units/mg enzyme) [10, 13]: 0.5 units/mg enzyme
Activity (units/mg enzyme) ([10]; substrate Suc-Ala-Pro-Phe-MCA): 0.83 units/mg enzyme
Activity (units/mg enzyme) [10, 14]: 18.7 units/mg enzyme
Hydrolysis of Z-Arg-Arg-MCA (in words) [10]: scarcely hydrolyzes
Activity (units/mg enzyme) [10, 15]: 0.86 units/mg enzyme
Activity (units/mg enzyme) ([10]; substrate z-Phe-Arg-MCA): 20.6 units/mg enzyme
Hydrolysis of Suc-Leu-Leu-Val-Tyr-MCA (in words, literature) ([11]; substrate Suc-Leu-Leu-Val-Tyr-MCA, Kurata et al. 1992): hydrolyzes
Hydrolysis of Z-Arg-Arg-MCA (in words, literature) ([11]; substrate Z-Arg-Arg-MCA, Takahashi et al. 1993): can not hydrolyze

cathepsin L from flesh fly (enzyme)
Activity (units/mg enzyme) (units/mg enzyme) [3]: 0.04
Activity (units/mg enzyme) (units/mg enzyme) [4]: 180
Activity (units/mg enzyme) (units/mg enzyme) [6]: 0.17

cathepsin L: cathepsin L from flesh fly, comparison cysteine protease
Activity (units/mg enzyme) [10, 14]: 0.04 units/mg enzyme
Hydrolysis of Z-Arg-Arg-MCA (in words) [10]: practically does not hydrolyze
Activity (units/mg enzyme) [10, 15]: 0.17 units/mg enzyme
Activity (units/mg enzyme) ([10]; substrate z-Phe-Arg-MCA): 180 units/mg enzyme

B1: 26.multidot.29 kDa protease: bimolecular cysteine protease of 26 kDa and 29 kDa subunits, purified from body fluid cells of flesh fly (Sarcophaga peregrina) (protein)
chain 1: TNPPRWDPNYIVKGTLYIPYAEIAEPFYAWYDKNTRRSRIDYYGGMVKTYQLANEHPFGTSLKLAPITTKSELNKVTCLQLNGTSEDPVQVQAILPNAKDFKLIGTETFLGFNCDKFRLEETIGDKKNVYTLWVRYKKSPHYPASRMPIPVRYEMRGYNTLLGSHYDHYYLDYDSYDHDDIPNEVFELDDNMECMPFPGPGK
chain 2: NGGNLVRLSQQALIDCSWEYGNNGCDGGEDFRAYKWMMEMGGVPTEEEYGPYLGQDGYCHAKNVSLVAPITGFFNVTPNDPMALKIALLKHGPISVAIDASPKTFSFYSHGVYYEPTCKNGLDELDHAVLAVGYGTINGEDYWLVKNSWSTYWGNDGYILMSARKNNCGVMTMPTYVEM
Recovery of protease activity after treatment to restore activity [12]: no positive effects
Activity (units/mg enzyme) ([10]; substrate Boc-Phe-Ser-Arg-MCA): 0.15 units/mg enzyme
Activity (units/mg enzyme) ([10]; substrate Boc-Val-Leu-Lys-MCA): 0.61 units/mg enzyme
Activity (units/mg enzyme) ([10]; substrate Pyr-Gly-Arg-MCA): 0.03 units/mg enzyme
Activity (units/mg enzyme) [10, 13]: 0.01 units/mg enzyme
Activity (units/mg enzyme) ([10]; substrate Suc-Ala-Pro-Phe-MCA): 0.01 units/mg enzyme
Activity (units/mg enzyme) [10, 14]: 0.03 units/mg enzyme
Hydrolysis of Z-Arg-Arg-MCA (in words) [10]: well hydrolyzes
Hydrolysis of Z-Phe-Arg-MCA (in words) ([10]; substrate Z-Phe-Arg-MCA): has also a hydrolyzing activity
Activity (units/mg enzyme) [10, 15]: 4.29 units/mg enzyme
Activity (units/mg enzyme) ([10]; substrate z-Phe-Arg-MCA): 2.25 units/mg enzyme

B2: recombinant homologue of 29 kDa subunit: recombinant protein of 29 kDa subunit expressed in E. coli, recovered as inclusion bodies (protein)
chain: NGGNLVRLSQQALIDCSWEYGNNGCDGGEDFRAYKWMMEMGGVPTEEEYGPYLGQDGYCHAKNVSLVAPITGFFNVTPNDPMALKIALLKHGPISVAIDASPKTFSFYSHGVYYEPTCKNGLDELDHAVLAVGYGTINGEDYWLVKNSWSTYWGNDGYILMSARKNNCGVMTMPTYVEM
Recovery of protease activity after treatment to restore activity [12]: could not recover its activity
Protease activity towards Z-Arg-Arg-MCA of recombinant protein expressed in E. coli ([12]; homogenate or inclusion bodies from expressing E. coli cells): only as much as the control E. coli cells

Reference: patent US6103514A, “Protease” (The University of Tokyo, priority 1997, dated 2000)
